In the experiment the target is MBP-Noc1/Noc2 complex (yeast, UniProt Q12176 1-1025; P39744 1-710). Briefly: pull-down.
MBP-Noc1/Noc2 complex, sequence (Q12176 whole entry, chain 1 of 2): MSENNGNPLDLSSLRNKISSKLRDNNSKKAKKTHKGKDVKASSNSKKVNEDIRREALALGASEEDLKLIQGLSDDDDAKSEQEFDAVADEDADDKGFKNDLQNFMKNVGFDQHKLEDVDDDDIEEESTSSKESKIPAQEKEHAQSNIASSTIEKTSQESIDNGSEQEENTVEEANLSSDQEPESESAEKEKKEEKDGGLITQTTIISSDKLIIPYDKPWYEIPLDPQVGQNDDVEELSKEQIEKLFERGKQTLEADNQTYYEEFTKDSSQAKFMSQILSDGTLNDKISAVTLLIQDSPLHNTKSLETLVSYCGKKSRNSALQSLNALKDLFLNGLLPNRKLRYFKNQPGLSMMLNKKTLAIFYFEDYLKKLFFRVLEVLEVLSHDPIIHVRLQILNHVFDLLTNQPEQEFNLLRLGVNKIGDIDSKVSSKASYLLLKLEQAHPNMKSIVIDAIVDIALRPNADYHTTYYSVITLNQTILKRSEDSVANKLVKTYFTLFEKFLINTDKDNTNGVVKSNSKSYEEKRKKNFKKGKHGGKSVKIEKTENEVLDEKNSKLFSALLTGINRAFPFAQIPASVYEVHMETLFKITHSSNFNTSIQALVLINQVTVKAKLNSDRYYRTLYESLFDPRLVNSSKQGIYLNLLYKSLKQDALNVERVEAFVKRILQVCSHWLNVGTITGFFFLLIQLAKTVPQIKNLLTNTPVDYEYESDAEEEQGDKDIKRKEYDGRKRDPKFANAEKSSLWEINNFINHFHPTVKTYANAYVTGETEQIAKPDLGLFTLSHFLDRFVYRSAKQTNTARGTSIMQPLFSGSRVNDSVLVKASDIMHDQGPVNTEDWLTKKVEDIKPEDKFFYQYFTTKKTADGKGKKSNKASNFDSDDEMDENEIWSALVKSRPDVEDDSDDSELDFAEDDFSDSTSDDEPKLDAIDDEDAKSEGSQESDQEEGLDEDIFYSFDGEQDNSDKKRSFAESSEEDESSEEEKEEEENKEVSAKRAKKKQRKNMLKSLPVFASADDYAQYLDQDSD
MBP-Noc1/Noc2 complex, sequence (P39744 whole entry, chain 2 of 2): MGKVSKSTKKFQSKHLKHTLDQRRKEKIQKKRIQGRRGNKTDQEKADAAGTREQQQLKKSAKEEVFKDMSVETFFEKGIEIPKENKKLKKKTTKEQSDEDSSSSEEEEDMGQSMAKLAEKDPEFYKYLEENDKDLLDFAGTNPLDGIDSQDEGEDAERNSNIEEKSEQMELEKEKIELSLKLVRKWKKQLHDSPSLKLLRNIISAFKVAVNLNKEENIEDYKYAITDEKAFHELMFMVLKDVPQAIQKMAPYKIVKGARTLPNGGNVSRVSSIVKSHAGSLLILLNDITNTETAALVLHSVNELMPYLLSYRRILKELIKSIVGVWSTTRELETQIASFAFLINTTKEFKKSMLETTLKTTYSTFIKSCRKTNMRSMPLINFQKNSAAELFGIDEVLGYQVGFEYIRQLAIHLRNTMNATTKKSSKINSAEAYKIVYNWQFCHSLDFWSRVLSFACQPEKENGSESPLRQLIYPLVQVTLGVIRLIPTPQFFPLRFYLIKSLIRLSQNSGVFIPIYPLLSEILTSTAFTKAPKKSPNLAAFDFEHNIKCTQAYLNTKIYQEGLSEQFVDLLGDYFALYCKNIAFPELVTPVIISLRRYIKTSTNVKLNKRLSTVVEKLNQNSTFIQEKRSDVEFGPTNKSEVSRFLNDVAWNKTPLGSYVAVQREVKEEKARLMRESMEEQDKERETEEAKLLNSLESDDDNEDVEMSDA

B1: Rrp5 full length (natural protein, yeast, UniProt Q05022 1-1729, looked up)
chain: MVASTKRKRDEDFPLSREDSTKQPSTSSLVRNTEEVSFPRGGASALTPLELKQVANEAASDVLFGNESVKASEPASRPLKKKKTTKKSTSKDSEASSANSDEARAGLIEHVNFKTLKNGSSLLGQISAITKQDLCITFTDGISGYVNLTHISEEFTSILEDLDEDMDSDTDAADEKKSKVEDAEYESSDDEDEKLDKSNELPNLRRYFHIGQWLRCSVIKNTSLEPSTKKSKKKRIELTIEPSSVNIYADEDLVKSTSIQCAVKSIEDHGATLDVGLPGFTGFIAKKDFGNFEKLLPGAVFLGNITKKSDRSIVVNTDFSDKKNKITQISSIDAIIPGQIVDLLCESITKNGIAGKVFGLVSGVVNVSHLRTFSEEDLKHKFVIGSSIRCRIIACLENKSGDKVLILSNLPHILKLEDALRSTEGLDAFPIGYTFESCSIKGRDSEYLYLALDDDRLGKVHSSRVGEIENSENLSSRVLGYSPVDDIYQLSTDPKYLKLKYLRTNDIPIGELLPSCEITSVSSSGIELKIFNGQFKASVPPLHISDTRLVYPERKFKIGSKVKGRVISVNSRGNVHVTLKKSLVNIEDNELPLVSTYENAKNIKEKNEKTLATIQVFKPNGCIISFFGGLSGFLPNSEISEVFVKRPEEHLRLGQTVIVKLLDVDADRRRIIATCKVSNEQAAQQKDTIENIVPGRTIITVHVIEKTKDSVIVEIPDVGLRGVIYVGHLSDSRIEQNRAQLKKLRIGTELTGLVIDKDTRTRVFNMSLKSSLIKDAKKETLPLTYDDVKDLNKDVPMHAYIKSISDKGLFVAFNGKFIGLVLPSYAVDSRDIDISKAFYINQSVTVYLLRTDDKNQKFLLSLKAPKVKEEKKKVESNIEDPVDSSIKSWDDLSIGSIVKAKIKSVKKNQLNVILAANLHGRVDIAEVFDTYEEITDKKQPLSNYKKDDVIKVKIIGNHDVKSHKFLPITHKISKASVLELSMKPSELKSKEVHTKSLEEINIGQELTGFVNNSSGNHLWLTISPVLKARISLLDLADNDSNFSENIESVFPLGSALQVKVASIDREHGFVNAIGKSHVDINMSTIKVGDELPGRVLKIAEKYVLLDLGNKVTGISFITDALNDFSLTLKEAFEDKINNVIPTTVLSVDEQNKKIELSLRPATAKTRSIKSHEDLKQGEIVDGIVKNVNDKGIFVYLSRKVEAFVPVSKLSDSYLKEWKKFYKPMQYVLGKVVTCDEDSRISLTLRESEINGDLKVLKTYSDIKAGDVFEGTIKSVTDFGVFVKLDNTVNVTGLAHITEIADKKPEDLSALFGVGDRVKAIVLKTNPEKKQISLSLKASHFSKEAELASTTTTTTTVDQLEKEDEDEVMADAGFNDSDSESDIGDQNTEVADRKPETSSDGLSLSAGFDWTASILDQAQEEEESDQDQEDFTENKKHKHKRRKENVVQDKTIDINTRAPESVADFERLLIGNPNSSVVWMNYMAFQLQLSEIEKARELAERALKTINFREEAEKLNIWIAMLNLENTFGTEETLEEVFSRACQYMDSYTIHTKLLGIYEISEKFDKAAELFKATAKKFGGEKVSIWVSWGDFLISHNEEQEARTILGNALKALPKRNHIEVVRKFAQLEFAKGDPERGRSLFEGLVADAPKRIDLWNVYVDQEVKAKDKKKVEDLFERIITKKITRKQAKFFFNKWLQFEESEGDEKTIEYVKAKATEYVASHESQKADE
Regarding B1, the binding result is recorded as “binds”.

The values above are taken from publication PMC6800521 (RNA, 2019).
